Measurements taken from IntAct's records for PubMed 9012831.

B1: Tyrosine-protein kinase BTK (Homo sapiens), Q06187 (parent)
chain: MAAVILESIFLKRSQQKKKTSPLNFKKRLFLLTVHKLSYYEYDFERGRRGSKKGSIDVEKITCVETVVPEKNPPPERQIPRRGEESSEMEQISIIERFPYPFQVVYDEGPLYVFSPTEELRKRWIHQLKNVIRYNSDLVQKYHPCFWIDGQYLCCSQTAKNAMGCQILENRNGSLKPGSSHRKTKKPLPPTPEEDQILKKPLPPEPAAAPVSTSELKKVVALYDYMPMNANDLQLRKGDEYFILEESNLPWWRARDKNGQEGYIPSNYVTEAEDSIEMYEWYSKHMTRSQAEQLLKQEGKEGGFIVRDSSKAGKYTVSVFAKSTGDPQGVIRHYVVCSTPQSQYYLAEKHLFSTIPELINYHQHNSAGLISRLKYPVSQQNKNAPSTAGLGYGSWEIDPKDLTFLKELGTGQFGVVKYGKWRGQYDVAIKMIKEGSMSEDEFIEEAKVMMNLSHEKLVQLYGVCTKQRPIFIITEYMANGCLLNYLREMRHRFQTQQLLEMCKDVCEAMEYLESKQFLHRDLAARNCLVNDQGVVKVSDFGLSRYVLDDEYTSSVGSKFPVRWSPPEVLMYSKFSSKSDIWAFGVLMWEIYSLGKMPYERFTNSETAEHIAQGLRLYRPHLASEKVYTIMYSCWHEKADERPTFKILLSNILDVMDEES

Variants of: B1
Conditions: with gtf2i_human GTF2I

Variant	effect of a mutation on the interaction
Y223F	decreasing interaction
Y551F	decreasing interaction
R307K	decreasing interaction
